Test results: patent CN111138528A (INST MILITARY MEDICINE ACADEMY MILITARY SCIENCES PLA, dated 2020)

Experiments:
EBOV GP = molecular target: T1, EBOV GP (Ebola virus (EBOV), UniProt Q05320 33-650); assay: ELISA, GP coated at 1 μg/mL, 5A8 from 10 μg/mL in 1:3 dilutions
T1 sequence: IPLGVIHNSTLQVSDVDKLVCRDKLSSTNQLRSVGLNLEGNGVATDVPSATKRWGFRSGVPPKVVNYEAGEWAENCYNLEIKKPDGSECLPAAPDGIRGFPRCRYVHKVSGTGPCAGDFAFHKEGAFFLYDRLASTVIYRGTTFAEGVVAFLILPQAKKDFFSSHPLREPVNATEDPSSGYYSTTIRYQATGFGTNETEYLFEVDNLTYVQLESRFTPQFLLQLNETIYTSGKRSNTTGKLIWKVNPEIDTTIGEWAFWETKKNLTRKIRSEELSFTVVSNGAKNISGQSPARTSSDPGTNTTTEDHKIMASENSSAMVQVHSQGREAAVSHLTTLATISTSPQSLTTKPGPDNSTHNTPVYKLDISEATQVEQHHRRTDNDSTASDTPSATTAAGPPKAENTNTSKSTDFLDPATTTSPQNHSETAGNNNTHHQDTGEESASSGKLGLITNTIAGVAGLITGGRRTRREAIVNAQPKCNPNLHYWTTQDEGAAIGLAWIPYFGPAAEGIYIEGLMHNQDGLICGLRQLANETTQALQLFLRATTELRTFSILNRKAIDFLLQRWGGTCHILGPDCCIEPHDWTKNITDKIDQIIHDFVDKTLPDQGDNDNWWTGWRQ

GP 227-295 = GP 227-295 (Ebola virus (EBOV), UniProt Q05320 227-295); assay: ELISA, truncated GP coated, 5A8 titrated (method of Example 2)
GP 95-295 = GP 95-295 (Ebola virus (EBOV), UniProt Q05320 95-295); assay: as above
GP1 = GP1 (Ebola virus (EBOV), UniProt Q05320 33-501); assay: as above
sGP = sGP (Ebola virus (EBOV), UniProt P60170 33-324); assay: as above
GP 33-310;463-558 = GP 33-310;463-558 (Ebola virus (EBOV), UniProt Q05320 33-310; Q05320 463-558); assay: as above
GP 158-295 = GP 158-295 (Ebola virus (EBOV), UniProt Q05320 158-295); assay: as above
RESTV GP = molecular target: T2, RESTV GP (RESTV, UniProt Q66799 34-651); assay: ELISA, GP coated at 1 μg/mL, 5A8 in 1:3 dilutions
T2 sequence: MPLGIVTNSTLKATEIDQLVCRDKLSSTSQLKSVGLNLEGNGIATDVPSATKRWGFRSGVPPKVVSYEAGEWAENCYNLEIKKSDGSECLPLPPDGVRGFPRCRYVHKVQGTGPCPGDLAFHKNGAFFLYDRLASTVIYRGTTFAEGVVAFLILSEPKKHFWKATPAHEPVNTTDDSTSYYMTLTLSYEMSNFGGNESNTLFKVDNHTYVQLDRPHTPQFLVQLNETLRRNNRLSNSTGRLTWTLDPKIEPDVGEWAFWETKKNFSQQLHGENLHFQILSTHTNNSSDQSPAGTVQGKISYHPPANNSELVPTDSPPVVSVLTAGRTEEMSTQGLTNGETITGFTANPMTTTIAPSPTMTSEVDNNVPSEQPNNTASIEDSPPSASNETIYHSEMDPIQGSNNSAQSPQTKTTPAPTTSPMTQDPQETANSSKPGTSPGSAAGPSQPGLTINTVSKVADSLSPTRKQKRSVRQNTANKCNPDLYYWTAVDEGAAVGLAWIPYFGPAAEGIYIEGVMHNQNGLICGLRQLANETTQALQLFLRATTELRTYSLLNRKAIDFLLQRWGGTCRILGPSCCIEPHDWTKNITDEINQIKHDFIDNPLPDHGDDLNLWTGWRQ

SUDV GP = molecular target: T3, SUDV GP (SUDV, UniProt Q7T9D9 33-650); assay: ELISA, GP coated at 1 μg/mL, 5A8 in 1:3 dilutions
T3 sequence: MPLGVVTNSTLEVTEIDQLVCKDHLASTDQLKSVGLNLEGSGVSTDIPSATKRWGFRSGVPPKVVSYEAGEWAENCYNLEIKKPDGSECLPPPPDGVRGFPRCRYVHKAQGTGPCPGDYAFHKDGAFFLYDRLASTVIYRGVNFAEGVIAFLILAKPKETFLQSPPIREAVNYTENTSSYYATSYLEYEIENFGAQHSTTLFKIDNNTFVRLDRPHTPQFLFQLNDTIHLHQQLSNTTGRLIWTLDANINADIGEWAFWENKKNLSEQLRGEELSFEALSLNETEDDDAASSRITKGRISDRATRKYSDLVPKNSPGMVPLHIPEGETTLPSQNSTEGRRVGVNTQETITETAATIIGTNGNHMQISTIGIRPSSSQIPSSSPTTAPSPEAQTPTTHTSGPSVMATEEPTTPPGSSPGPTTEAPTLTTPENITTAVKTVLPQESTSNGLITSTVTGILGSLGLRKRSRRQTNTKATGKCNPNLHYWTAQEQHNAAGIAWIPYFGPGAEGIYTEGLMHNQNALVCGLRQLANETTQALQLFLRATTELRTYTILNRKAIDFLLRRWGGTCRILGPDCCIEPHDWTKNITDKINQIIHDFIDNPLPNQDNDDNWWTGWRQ

B1: 单克隆抗体5A8 (antibody, V domains shown)
VH: EVQLLESGGGLVKPGGSLRLSCAASGFTFSDYYMNWIRQAPGKGLEWVSYISSSGKTIYYADSVKGRFTISRDNAKKSLYLQMNSLRAEDTAVYYCARDREIVISTTILLGSDHYAMDVWGQGTTVTVSS
VL: DIQMTQSPFTLSASVGDRVTITCRASQSINSYLNWYQQKPGKAPKLLIYSASSLQSGVPSRFSGSGSGTDFTLTISSLQPEDFAIYYCQQTYRTPYTFGQGTKVEIKT
- EC50 (EBOV GP): 14 ng/mL
- EC50 (GP 227-295): 12.6 ng/mL
- EC50 (GP 95-295): 7.1 ng/mL
- EC50 (GP1): 6.9 ng/mL
- EC50 (sGP): 7.5 ng/mL
- EC50 (GP 33-310;463-558): 4.9 ng/mL
- EC50 (GP 158-295): 20 ng/mL
- binding result (RESTV GP): no binding (tested: 10μg/mL (highest concentration tested))
- binding result (SUDV GP): no binding (tested: 10μg/mL (highest concentration tested))
